Experimental findings from US20080085859A1, “Drug Promoting Ceramide Transport, Base Sequence for Producing the Drug, Method of Measuring Activity of Promoting Ceramide Release and Method of Measuring Activity of Promoting Intermembrane Ceramide Transfer” (JAPAN SCIENCE AND TECHNOLOGY AGENCY, priority 2003, published 2008) are described below.

Test [1] can be described thus: ceramide release promotion activity from membrane. The format is biochemical. Conditions: 14C-ceramide in phosphatidylcholine/phosphatidylethanolamine membrane, 37° C. 30 minutes, 14C in supernatant; FIGS. 14, 16. How it is done: (§1) Hereinafter, the standard method will be described in detail, however, even if the described conditions are changed, a method of detecting ceramide release promotion activity having means for separating releasing ceramide by a centrifugation principally belongs to the present invention. The lipid membrane containing ceramide was prepared so that it contains 12.5 nCi (225 pmol) per sample of [palmitoyl-1-^14C]N-palmitoyl-D-ethyro-sphigosine (hereinafter, may be referred to as ^14C-ceramide) on the basis of the mixed lipid consisting of phosphatidylcholine and phosphatidylethanolamine derived from egg yolk at the ratio of 4:1 and its concentration becomes 2.5 mg/mL. This lipid membrane is required at the rate of 20 μL per one sample of the activity measurement. […]
(§2) hCERT protein or its recombinant protein described above as a protein sample to be targeted (under the standard conditions, the amount of protein corresponding to 450 picomoles, which is 2-fold molar equivalent amount of ceramide contained in the donating membrane was used) were messed up to 30 μL using the buffer 2 [50 mM Hepes-NaOH buffer (pH7.4) to which 100 mM NaCl and 0.5 mM EDTA have been added]. […] The activity for promoting ceramide release with hCERT was calculated by measuring the radioactive activity of ^14C in the supernatant fraction using a liquid scintillation counter. […]

Test [2] is described as follows: releasing reaction assay with other lipids as substrate (specificity). The format is biochemical. The settings on record: FIG. 15. On the procedure:
as §1, §2

The test system of the next test is LY-A2 cell. The test is described as follows: sensibility to MCD and lysenin (MTT). The format is cell-based, Chinese hamster. On the procedure:
100 thousand pieces of cells per each well of a 12-well culture dish were inoculated in 1 mL of F12/NBS culture medium and cultured at 33° C. overnight. After Cells existed on the culture dish was washed twice in 1 mL of serum-free F12 medium, 1 mL of 10 mM MCD/F12 or lysenin (25 ng/mL)/F12 was added. It should be noted that culture medium in which 1 mL of only serum-free F12 has been added was made control. After it has been incubated at 37° C. for one hour, it was washed twice in 1 mL of phosphate buffered saline (PBS). Subsequently, 1 mL of MTT (0.5 mg/mL)/F12 was added and incubated at 37° C. for one hour. The relative amount of the generated reduced form of MTT was measured by a method of reference literature written by Hanada et al (J. Biol. Chem. 273, 33787-33794, 1998).
The relevant gene was expressed in LY-A2 cell by making virus particle derived from retrovirus vector infect it prepared in the foregoing paragraph. Specifically, the relevant gene was expressed in LY-A2 cell by making virus particle derived from pLIB/hCERT. In the case where hCERT was expressed, the purified transformed strain was also separated by a ultradilution method, and this strain was named as LY-A2/hCERT. After it has been cultured for days, the sensitivity to MCD and lysenin was examined by the above-described method. […]

B1: hCERT protein: human CERT protein having an amino acid sequence of SEQ ID NO:1 (protein)
chain: MSDNQSWNSSGSEEDPETESGPPVERCGVLSKWTNYIHGWQDRWVVLKNNALSYYKSEDETEYGCRGSICLSKAVITPHDFDECRFDISVNDSVWYLRAQDPDHRQQWIDAIEQHKTESGYGSESSLRRHGSMVSLVSGASGYSATSTSSFKKGHSLREKLAEMETFRDILCRQVDTLQKYFDACADAVSKDELQRDKVVEDDEDDFPTTRSDGDFLHSTNGNKEKLFPHVTPKGINGIDFKGEAITFKATTAGILATLSHCIELMVKREDSWQKRLDKETEKKRRTEEAYKNAMTELKKKSHFGGPDYEEGPNSLINEEEFFDAVEAALDRQDKIEEQSQSEKVRLHWPTSLPSGDAFSSVGTHRFVQKVEEMVQNHMTYSLQDVGGDANWQLVVEEGEMKVYRREVEENGIVLDPLKATHAVKGVTGHEVCNYFWNVDVRNDWETTIENFHVVETLADNAIIIYQTHKRVWPASQRDVLYLSVIRKIPALTENDPETWIVCNFSVDHDSAPLNNRCVRAKINVAMICQTLVSPPEGNQEISRDNILCKITYVANVNPGGWAPASVLRAVAKREYPKFLKRFTSYVQEKTAGKPILF
modifications: HeLa cell
On to B1, for which the “activity for promoting ceramide release” value in test [1] was “detected depending on the amount of hCERT and the length of incubating time”. Also, the “diacylglycerol releasing promotion, of the activity with respect to ceramide” value in test [2] is reported as “about 5%”. The “releasing reaction with respect to diacylglycerol, cholesterol, phosphatidylcholine, sphingomyelin, sphingosine” value in test [2] (substrate changed from ceramide to other lipids) was “did not indicate a significant releasing reaction”. In addition, the “MCD resistance and lysenin sensitivity” value in the test with LY-A2 cell (LY-A2 infected with virus particle derived from pLIB/hCERT, FIG. 2) was “significantly acquired MCD resistance and lysenin sensitivity”. Also, the “sensitivity to MCD and lysenin” value with LY-A2 cell (purified LY-A2/hCERT cell, FIG. 3(A)) is on record as “approximately the same level as the sensitivity seen in the wild type CHO-K1 cell”.
